From PMC7542363

Assay: overnight CpaA digestion, SDS-PAGE
Conditions: glycan changed form; control: untreated fetuin

B1: fetuin (alpha-2-HS-glycoprotein): asialofetuin (protein)
parent chain: MKSFVLLFCLAQLWGCHSIPLDPVAGYKEPACDDPDTEQAALAAVDYINKHLPRGYKHTLNQIDSVKVWPRRPTGEVYDIEIDTLETTCHVLDPTPLANCSVRQQTQHAVEGDCDIHVLKQDGQFSVLFTKCDSSPDSAEDVRKLCPDCPLLAPLNDSRVVHAVEVALATFNAESNGSYLQLVEISRAQFVPLPVSVSVEFAVAATDCIAKEVVDPTKCNLLAEKQYGFCKGSVIQKALGGEDVRVTCTLFQTQPVIPQPQPDGAEAEAPSAVPDAAGPTPSAAGPPVASVVVGPSVVAVPLPLHRAHYDLRHTFSGVASVESSSGEAFHVGKTPIVGQPSIPGGPVRLCPGRIRYFKI
- other: proteolytic processing: no change
